Measured values taken from patent US20140099313A1.

Key:
[1] = target: human IL-13 wild type (human) (UniProt P35225); experiment: competition, cell surface RBA: IL-13 to IL-13Rα2 on COS cells
[2] = target: human IL-13 wild type (human) (UniProt P35225); experiment: competition, ELISA RBA: IL-13 to IL-13Rα2/Fc

Sequence of human IL-13 wild type (human) (P35225 other isoform, or with tags, fused parts or gaps limits assumed): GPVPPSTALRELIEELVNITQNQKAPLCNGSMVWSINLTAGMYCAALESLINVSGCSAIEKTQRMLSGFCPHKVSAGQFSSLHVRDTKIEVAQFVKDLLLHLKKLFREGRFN

percent inhibition at 100 nM [1]: 70%
percent inhibition at 100 nM [2]: 60%
B1: MJ2-7 (antibody, from another filing, V domains shown)
VH: EVQLQQSGAELVKPGASVKLSCTGSGFNIKDTYIHWVKQRPEQGLEWIGRIDPANDNIKYDPKFQGKATITADTSSNTAYLQLNSLTSEDTAVYYCARSEENWYDFFDYWGQGTTLTVSS
VL: DVLMTQTPLSLPVSLGDQASISCRSSQSIVHSNGNTYLEWYLQKPGQSPKLLIYKVSNRFSGVPDRFSGSGSGTDFTLKISRVEAEDLGVYYCFQGSHIPYTFGGGTKLEIK
